The target of test [1] is T1, mouse IL-2 (mIL-2) (mouse, UniProt P04351 21-169).
T1 construct: Coated on the ELISA plate at 5 ug/ml
T1 sequence (looked up): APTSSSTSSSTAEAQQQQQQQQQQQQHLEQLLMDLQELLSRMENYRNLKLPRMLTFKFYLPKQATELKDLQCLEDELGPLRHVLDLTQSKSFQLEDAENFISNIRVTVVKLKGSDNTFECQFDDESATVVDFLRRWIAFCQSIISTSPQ
Nature of the test: ELISA on plate coated with mIL-2 (5 µg/ml), titrated mAb, detection with anti-mouse IgG HRP or anti-rat IgG HRP. As for the experimental part: In vivo mouse models were used to evaluate the therapeutic efficacy of a hIL-2/TCB2 mAb complex. […] First, the splenocytes of BALB/c mice immunized 3-4 times with hIL-2 over several weeks were fused with SP/2 myeloma cells. When the hybridoma colony was visualized, the culture supernatant was subjected to ELISA. 5 μg/ml of hIL-2 or mIL-2 was added to and mixed with PBS, and a total of 50 μl of the mixture was coated on an ELISA plate. Next, 200 μl of 10% FBS was added to the PBS and incubated at room temperature for 30 minutes in order to prevent non-specific binding, and a titrated dose of the monoclonal antibody was incubated for 30 minutes. The binding of the monoclonal antibody to the coated hIL-2 or mIL-2 was detected with anti-mouse IgG HRP or anti-rat IgG HRP. In each step, the plate was washed 3-5 times with 200 μl of PBS. As positive controls, commercially available monoclonal antibodies were used. As a positive control for hIL-2, Mab602 was used, and as positive controls for mIL-2, JES6-1 and S4B6 were used.
On the technique in general: An ELISA detects its analyte on a solid surface through an enzyme-linked reagent.

In test [2] the target is T2, human interleukin-2 (hIL-2) (human, UniProt P60568 21-153).
T2 construct: mature; The 133-residue length in the definition corresponds to the mature protein; also called human IL-2
T2 sequence (P60568 21-153): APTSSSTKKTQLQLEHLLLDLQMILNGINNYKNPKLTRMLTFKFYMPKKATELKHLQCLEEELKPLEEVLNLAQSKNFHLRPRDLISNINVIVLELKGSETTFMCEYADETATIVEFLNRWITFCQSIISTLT
Nature of the test: SPR, Biacore T100; antibody immobilized on a CM5 chip by amine coupling, hIL-2 flowed as 2-fold dilutions from 100 nM. How it is done: For detection of hIL-2, […] was used. 900 RU (Rmax=90) of anti-hIL-2 clones were immobilized on a CM5 chip by amine coupling. A 2-fold dilution (100 nM) of hIL-2 was allowed to flow on the chip at a rate of 10 μl/min for 3 minutes, and then dissociation of the hIL-2 was monitored for 10 minutes.
A general note: In SPR one partner is held on a chip, and binding of the other changes the refractive index at the surface.

Test [3] deals with T2, human interleukin-2 (hIL-2). Nature of the test: kinetic affinity for hIL-2, Set 1; method not given; Set 1.
For test [4] the target is unchanged. The test can be described thus: kinetic affinity for hIL-2, Set 2; method not given.
Test [5] shares this target. Nature of the test: kinetic affinity for hIL-2, Set 1; method not given.
Test [6] shares this target. The test can be described thus: ELISA on plate coated with hIL-2 (5 µg/ml), titrated mAb, detection with anti-mouse IgG HRP or anti-rat IgG HRP.

B1: TCB2 monoclonal antibody (mouse TCB2) (antibody, V domains shown)
VH: EVQLQQSGAELARPGASVKLSCKASGYTFTTYWIQWVKQRPGQGLEWIGAIYPGDGDTRYIQNFKGKATLTADKSSSTAYMQLSSLASEDSAVYYCARSLATRGFYAMDYWGQGTSVTVSS
VL: DIVMTQSPASLSMAIGEKVTIRCITSTDIDDDMNWYQQKPGEPPKLLISEGNTLRPGVPSRFSSSGYGTDFVFTIENMLSEDVADYYCLQSDNLPYTFGGGTKLEIK
notes: Mouse hybridoma antibody from BALB/c mice immunized with hIL-2; It was detected with anti-mouse IgG HRP; also called TCB2 mAb; mTCB2
Consider B1, for which the binding result in test [1] is “no binding (tested: 10000 ng/ml)”. For the same molecule, in test [2], the Kd (commonly a measure of binding affinity in units of concentration) amounted to 0.0811 nM; the koff (usually a measure of how fast the partners let go of each other) turned out to be 0.000419 s⁻¹; the kon – broadly, the rate constant with which the complex forms – worked out at 5.17e+06 M⁻¹ s⁻¹.

B2: human chimeric TCB2 (antibody, human IgG2, kappa, V domains shown)
VH: EVQLQQSGAELARPGASVKLSCKASGYTFTTYWIQWVKQRPGQGLEWIGAIYPGDGDTRYIQNFKGKATLTADKSSSTAYMQLSSLASEDSAVYYCARSLATRGFYAMDYWGQGTSVTVSS
VL: DIVMTQSPASLSMAIGEKVTIRCITSTDIDDDMNWYQQKPGEPPKLLISEGNTLRPGVPSRFSSSGYGTDFVFTIENMLSEDVADYYCLQSDNLPYTFGGGTKLEIKR
notes: The Fab region of TCB2 mAb was cloned into an IgG2 expression vector; also called hcTCB2
In turn, B2 gave a kon in test [3] of 2.27e+07 M⁻¹ s⁻¹. Besides, in test [4], binding was characterised by a dissociation constant (Kd) of 0.0616 nM, the koff was found to be 0.00141 s⁻¹ and the kon was 2.29e+07 M⁻¹ s⁻¹. Moreover, in test [5], binding was put at a Kd of 0.0717 nM and the koff turned out to be 0.00163 s⁻¹.

B3: S4B6 (antibody, V domains shown)
VH: EVQLQESGAELVRPGTSVKLSCKVSGDTITAYYLHFVRQRPGQGLEWIGRIDPEDDSTKYAENFKNKATFTADASSNTAYLRLSSLTSEDTATYFCTTVTFYYSRELRWFAYWGQGTLVTVSS
VL: DIQVTQSPASLSASLEEIVTITCQASQDIGNYLSWYQQKLGKSPQLLIHSATSLADGVPSRFSGSRSGTQYSLKINRLQVEDTGIYYCLQHYSTPYTFGAGTKLELK
B3: the EC50 (read off the curve) (usually the concentration needed to bring the measured effect to its halfway point) in test [1] is roughly 0.3 µg/mL.

B4: humanized TCB2 clone VH1+VL2 (antibody, V domains shown)
VH: QVQLVQSGAEVKKPGASVKVSCKASGYTFTTYWIQWVRQAPGQGLEWMGAIYPGDGDTRYIQNFKGRVTMTRDTSTSTVYMELSSLRSEDTAVYYCARSLATRGFYAMDYWGQGTLVTVSS
VL: DIVMTQSPSSLSASVGDRVTIRCITSTDIDDDMNWYQQKPGKAPKLLISEGNTLRPGVPSRFSGSGYGTDFTFTISSLQPEDIADYYCLQSDNLPYTFGGGTKLEIK
notes: Humanized and expressed with human IgG1 Fc; also called VL2+VH1; hnTCB2
In test [5], B4 had a Kd of 0.104 nM, a koff of 0.00197 s⁻¹ and a kon of 1.89e+07 M⁻¹ s⁻¹.

B5: humanized TCB2 clone VH2+VL2 (antibody, V domains shown)
VH: QVQLVQSGAEVKKPGASVKLSCKASGYTFTTYWIQWVKQAPGQGLEWIGAIYPGDGDTRYIQNFKGRVTMTADTSTSTVYMELSSLRSEDTAVYYCARSLATRGFYAMDYWGQGTLVTVSS
VL: DIVMTQSPSSLSASVGDRVTIRCITSTDIDDDMNWYQQKPGKAPKLLISEGNTLRPGVPSRFSGSGYGTDFTFTISSLQPEDIADYYCLQSDNLPYTFGGGTKLEIK
notes: Humanized and expressed with human IgG1 Fc; also called VL2+VH2; hnTCB2
In the case of B5, in test [5], the Kd stood at 0.275 nM, the koff is 0.00463 s⁻¹ and the kon was 1.68e+07 M⁻¹ s⁻¹.

B6: humanized TCB2 clone AH03463 (VL03463+VH03463) (antibody, V domains shown)
VH: EVQLVQSGAEVKKPGASVKVSCKASGYTFTTYWIQWVKQAPGQGLEWMGAIYPGDGDTRYIQNFKGRVTMTRDTSTSTVYMELSSLRSEDTAVYYCARSLATRGFYAMDYWGQGTLVTVSS
VL: DIQMTQSPSSLSASVGDRVTITCITSTDIDDDMNWYQQKPGKAPKLLIYEGNTLRPGVPSRFSSSGSGTDFTFTISSLQPEDIATYYCLQSDNLPYTFGGGTKLEIK
notes: Humanized and expressed with human IgG1 Fc; also called hnTCB2
Turning to B6, in test [4], the Kd was found to be 0.198 nM, the koff was 0.00418 s⁻¹ and the kon came to 2.11e+07 M⁻¹ s⁻¹.

B7: MAB602 (antibody, from another filing, V domains shown)
VH: EVQLQESGPGLVAPSQSLSITCTVSGFSLTNYDISWIRQPPGKGLEWLGVIWTGGGTNYNSGFMSRLSITKDNSKSQVFLKMNSLQTDDTAIYYCVRQGRTPYWGQGTLVTVSA
VL: DIQVTQSPSSLSVSLGDRVTITCKASKDIYNRLAWYQQKPGNAPRLLISGATSLETGVPSRFSGSGSGKDYTLTITSLQTEDVATYYCQQFWGTPYTFGGGTKLEIKR
As for B7, in test [1], the EC50 (read off the curve) is 0.03 µg/mL. In test [2], the Kd amounted to 0.213 nM, the koff amounted to 0.000948 s⁻¹ and the kon is 4.43e+06 M⁻¹ s⁻¹. The EC50 (read off the curve) in test [6] amounted to 0.04 µg/mL.

These data come from patent US20200140538A1 (INSTITUTE FOR BASIC SCIENCE, published 2020).
